Results on four substances are retold here after publication PMC6710095.

Like-named read-outs stand apart in the source and are kept apart here.

The target of assay [1] is C-terminal fragment of TraF/VirB10 in the D1 complex (residues 1-129 removed) (plasmid pKM101). Kind of assay: negative stain electron microscopy.
For assay [2], the target named is TraF/VirB10 with C-terminal Strep-tag (TraF/VirB10 C-ST) (plasmid pKM101). Kind of assay: negative stain electron microscopy.
Assay [3] shares this target.
In assay [4] the target is TraN/VirB7 (pKM101-encoded T4SS lipoprotein) (plasmid pKM101). Description: negative stain electron microscopy.
Assay [5] concerns the target TraO/VirB9 (pKM101-encoded T4SS) (plasmid pKM101). Kind of assay: negative stain electron microscopy.

The term stoichiometry N denotes the number of molecules, sites or subunits per partner or assembly. “C-terminal fragment of TraF/VirB10 in the D1 complex (residues 1-129 removed) (domain or fragment)” showed a stoichiometry N in assay [1] of 14.

As for “TraF/VirB10 with C-terminal Strep-tag (TraF/VirB10 C-ST) (natural protein)”, the stoichiometry N in assay [2] is 14. For “TraN/VirB7 (pKM101-encoded T4SS lipoprotein) (natural protein)”, the stoichiometry N in assay [3] was 1; in assay [4], 14. Consider “TraO/VirB9 (pKM101-encoded T4SS) (natural protein)”, for which the stoichiometry N in assay [3] worked out at 1; in assay [5] it was 14.
